Laboratory results published in article doi:10.1101/2025.06.02.656870.

Molecular target: chicken IgY (chicken)
Test: BLI; Octet SAX biosensors, as described previously (ref. 10); kinetic 1:1 model, global fits over multiple Fab concentrations

Sequence of chicken IgY (chicken) (main, as listed by the source): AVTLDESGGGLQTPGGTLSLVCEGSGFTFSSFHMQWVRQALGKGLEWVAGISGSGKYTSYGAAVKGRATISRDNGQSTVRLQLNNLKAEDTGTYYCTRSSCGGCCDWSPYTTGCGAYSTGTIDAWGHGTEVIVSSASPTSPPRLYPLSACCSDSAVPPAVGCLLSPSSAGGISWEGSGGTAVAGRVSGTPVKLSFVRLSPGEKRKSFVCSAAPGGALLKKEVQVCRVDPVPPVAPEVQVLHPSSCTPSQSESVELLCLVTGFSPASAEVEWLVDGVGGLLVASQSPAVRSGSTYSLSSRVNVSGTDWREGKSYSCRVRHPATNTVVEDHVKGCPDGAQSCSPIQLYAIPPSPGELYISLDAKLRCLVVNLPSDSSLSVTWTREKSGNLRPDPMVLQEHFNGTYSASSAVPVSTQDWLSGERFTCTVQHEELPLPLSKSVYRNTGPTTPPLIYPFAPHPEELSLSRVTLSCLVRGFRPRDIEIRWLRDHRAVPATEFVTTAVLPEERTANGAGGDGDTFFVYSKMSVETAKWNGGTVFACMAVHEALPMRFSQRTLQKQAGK

Kd: 0.062 nM
B1: 2.1^hi Fab (D28HA, K49HR, S64HG, A40LG, Y42LF, A52LS, Q105LH, N108LY) (Fab, V domains shown)
VH: EVQLQESGPSLVKPSQTLSLTCSVTGASITSGYWNWIRKFPGNRLEYMGYISYSGGTYYNPSLKSRISITRDTSKNQYYLQLNSVTTEDTATYYCARDFDVWGAGTTVTVSS
VL: DIVMTQSQKFMSTSVGDRVSVTCKASQNVGTNVGWFQQKPGQSPKSLIYSASYRYSGVPDRFTGSGSGTDFTLTISNVQSEDLAEYFCHQYYSYPLTFGSGTKLEIK
